From US20160039947A1 (Eli Lilly, published 2016) come the findings set out here.

Assay [1] has as its target T1, hHER-2-Fc (human, UniProt P04626 23-652).
T1 construct: Coated unlabelled in the sandwich ELISA; biotinylated and captured on an SA chip in the SPR assay; also called human HER-2-Fc; hHER-2-Fc-biotin; not shown: Fc part of the bought fusion protein
In words: sandwich ELISA: hHER-2-Fc coated, IgG, hEGFR-Fc-biotin detection. Here is the method:
(§1) Two sandwich ELISAs are developed, one for detecting anti-HER-2/anti-EGFR BsAb activity and one for detecting anti-cMET/anti-Axl BsAb activity. For both ELISAs, clear 96-well round bottom high binding Immulon microtiter plates (Greiner bio-one, cat#650061) are coated overnight at 2-8° C. with 50 μL/well 1 μg/mL hHER-2-Fc or 1 μg/mL hHGFR(cMet)-Fc (both from R&D systems) in a 50 mM Na₂CO₃ pH 8 buffer. The plates are washed 4 times with PB ST and blocked with 100 μL/well casein buffer (Pierce) for 1 hr at 37° C. The plates are then washed 4 times with PBST and the parental IgG controls or BsAb IgG test articles are added at 50 μL/well and 5 μg/mL and serially diluted 1:3 down the plate. The test articles are incubated on the plate for 1 hr at 37° C. The plates are then washed 4 times with PBST and 50 μL/well 0.2 μg/mL hEGFR-Fc-biotin or hAxl-Fc-biotin (both from R&D systems) is added for 1 hr at 37° C. The plates are then washed 4 times with PBST followed by the addition of a 50 μL/well streptavidin-HRP (Jackson Labs) diluted 1:2000 in PBST. The streptavidin-HRP is incubated in each well for 1 hr at 37° C. The plates are then washed 4 times with PBST and 100 μL/well 1-component TMB substrate is added (KPL laboratories). […] Absorbance (450 nm) of every well in the plates is read using a SpectraMax UV plate reader (Molecular Devices). […]

The target in the next assay is T2, hEGFR-Fc (human, UniProt P00533 25-645).
T2 construct: Biotin-labelled (EZ-Link Sulfo-NHS-LC-Biotin) as detection reagent in the ELISA; unlabelled second injection in SPR; also called hEGFR-Fc-biotin; not shown: Fc part of the bought fusion protein
In words: sandwich ELISA: hHER-2-Fc coated, BsAb, hEGFR-Fc-biotin detection. The protocol:
(§2) Two sandwich ELISAs are developed, one for detecting anti-HER-2/anti-EGFR BsAb activity and one for detecting anti-cMET/anti-Axl BsAb activity. For both ELISAs, clear 96-well round bottom high binding Immulon microtiter plates (Greiner bio-one, cat#650061) are coated overnight at 2-8° C. with 50 μL/well 1 μg/mL hHER-2-Fc or 1 μg/mL hHGFR(cMet)-Fc (both from R&D systems) in a 50 mM Na₂CO₃ pH 8 buffer. The plates are washed 4 times with PB ST and blocked with 100 μL/well casein buffer (Pierce) for 1 hr at 37° C. The plates are then washed 4 times with PBST and the parental IgG controls or BsAb IgG test articles are added at 50 μL/well and 5 μg/mL and serially diluted 1:3 down the plate. The test articles are incubated on the plate for 1 hr at 37° C. The plates are then washed 4 times with PBST and 50 μL/well 0.2 μg/mL hEGFR-Fc-biotin or hAxl-Fc-biotin (both from R&D systems) is added for 1 hr at 37° C. The plates are then washed 4 times with PBST followed by the addition of a 50 μL/well streptavidin-HRP (Jackson Labs) diluted 1:2000 in PBST. The streptavidin-HRP is incubated in each well for 1 hr at 37° C. The plates are then washed 4 times with PBST and 100 μL/well 1-component TMB substrate is added (KPL laboratories). After approximately 10 minutes, […] 1% H₃PO₄ (in H₂O) is added to each plate to quench the reaction. Absorbance (450 nm) of every well in the plates is read using a SpectraMax UV plate reader (Molecular Devices). Biotin-labeling of the hEGFR-Fc and hAxl-Fc proteins is performed using EZ-Link Sulfo-NHS-LC-Biotin (Thermo Scientific) according to the manufacturer's protocol.

Assay [2] has as its target T1, hHER-2-Fc. The description is as above. Here is the method:
as §2

A further assay has as its target T3, hHGFR(cMet)-Fc (human, UniProt P08581 25-932).
T3 construct: Coated in the sandwich ELISA; second injection in SPR; not shown: Fc part of the bought fusion protein
In words: sandwich ELISA: hHGFR(cMet)-Fc coated, IgG, hAxl-Fc-biotin detection. Here is the method:
as §1

T3 sequence (P08581 25-932): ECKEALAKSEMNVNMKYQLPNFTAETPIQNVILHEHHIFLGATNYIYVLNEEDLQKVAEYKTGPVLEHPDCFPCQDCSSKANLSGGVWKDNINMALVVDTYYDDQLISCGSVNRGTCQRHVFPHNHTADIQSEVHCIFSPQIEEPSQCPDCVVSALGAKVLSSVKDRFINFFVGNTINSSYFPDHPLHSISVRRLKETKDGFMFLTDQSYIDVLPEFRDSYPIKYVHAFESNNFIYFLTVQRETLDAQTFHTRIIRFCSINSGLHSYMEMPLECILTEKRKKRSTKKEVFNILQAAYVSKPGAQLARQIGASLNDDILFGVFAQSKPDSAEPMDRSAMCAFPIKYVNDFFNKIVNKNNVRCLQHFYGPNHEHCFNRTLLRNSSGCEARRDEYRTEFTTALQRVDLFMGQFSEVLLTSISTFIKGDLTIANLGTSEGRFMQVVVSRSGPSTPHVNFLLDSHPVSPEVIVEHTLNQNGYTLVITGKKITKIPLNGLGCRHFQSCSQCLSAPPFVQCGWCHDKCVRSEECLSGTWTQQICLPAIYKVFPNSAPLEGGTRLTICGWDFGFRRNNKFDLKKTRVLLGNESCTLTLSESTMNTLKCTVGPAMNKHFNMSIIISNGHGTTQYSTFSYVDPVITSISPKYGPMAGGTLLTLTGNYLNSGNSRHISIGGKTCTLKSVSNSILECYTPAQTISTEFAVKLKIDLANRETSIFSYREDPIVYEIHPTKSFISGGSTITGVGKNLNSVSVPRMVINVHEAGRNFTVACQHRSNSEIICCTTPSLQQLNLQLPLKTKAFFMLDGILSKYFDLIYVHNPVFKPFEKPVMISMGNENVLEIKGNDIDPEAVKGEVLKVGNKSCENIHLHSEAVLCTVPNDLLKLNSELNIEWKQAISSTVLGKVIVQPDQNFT

B1: matuzumab IgG1 (mG1) (antibody, V domains shown)
VH: QVQLVQSGAEVKKPGASVKVSCKASGYTFTSHWMHWVRQAPGQGLEWIGEFNPSNGRTNYNEKFKSKATMTVDTSTNTAYMELSSLRSEDTAVYYCASRDYDYDGRYFDYWGQGTLVTVSS
VL: DIQMTQSPSSLSASVGDRVTITCSASSSVTYMYWYQQKPGKAPKLLIYDTSNLASGVPSRFSGSGSGTDYTFTISSLQPEDIATYYCQQWSSHIFTFGQGTKVEIKG
notes: also called matuzumab (anti-EGFR) control IgG
B1: in the assay with hHER-2-Fc [1], the binding result was “no binding (tested: 5 µg/mL, serially diluted 1:3)”.

B2: HEDesign λλ (anti-HER-2/anti-EGFR IgG BsAb with Fab redesigns) (bispecific antibody)
heavy 1: EVQLVESGGGLVQPGGSLRLSCAASGFTFTDYTMDWVRKAPGKGLEWVADVNPNSGGSIYNQEFKGRFTLSVDRSKNTLYLQMNSLRAEDTAVYYCARNLGPSFYFDYWGQGTLVTVSSASTKGPSVFPLAPSSKSTSGGTAALGCLVKDYFPEPVTVSWNSGALTSGVATGPAVLQSSGLYSLSSVVTVPSSSLGTQTYICNVNHKPSNTKVDKKVEPKSCDKTHTCPPCPAPELLGGPSVFLFPPKPKDTLMISRTPEVTCVVVDVSHEDPEVKFNWYVDGVEVHNAKTKPREEQYQSTYRVVSVLTVLHQDWLNGKEYKCKVSNKALPAPIEKTISKAKGQPREPQVYTLPPSRDELTKNQVSLTCLVKGFYPSDIAVEWESNGQPENNYDTTPPVLDSDGSFFLYSDLTVDKSRWQQGNVFSCSVMHEALHNHYTQKSLSLSPG
light 1: RIQMTQSPSSLSASVGDRVTITCKASQDVSIGVAWYQDKPGKAPKLLIYSASYRYTGVPSRFSGSGSGTDFTLTISSLQPEDFATYYCQQYYIYPYTFGQGTKVEIKGQPKAAPSVTLFPPSSEELQANKATLVCYISDFYPGAVTVAWKADSSPVKAGVETTTPSKQSNNKYAAWSYLSLTPEQWKSHRSYSCQVTHEGSTVEKTVAPTEC
heavy 2: QVQLVQSGAEVKKPGASVKVSCKASGYTFTSHWMHWVRYAPGQGLEWIGEFNPSNGRTNYNEKFKSKATMTVDTSTNTAYMELSSLRSEDTAVYYCASRDYDYDGRYFDYWGQGTLVTVSSASTKGPSVFPLAPSSKSTSGGTAALGCLVKDYFPEPVTVSWNSGALTSGVHTFPAVLQSSGLYSLSSVVTVPSSSLGTQTYICNVNHKPSNTKVDKKVEPKSCDKTHTCPPCPAPELLGGPSVFLFPPKPKDTLMISRTPEVTCVVVDVSHEDPEVKFNWYVDGVEVHNAKTKPREEQYQSTYRVVSVLTVLHQDWLNGKEYKCKVSNKALPAPIEKTISKAKGQPREPQVYTLPPSRKELTKNQVSLTCLVKGFYPSDIAVEWESNGQPENNYKTTPPVLKSDGSFFLYSKLTVDKSRWQQGNVFSCSVMHEALHNHYTQKSLSLSPG
light 2: DIQMTQSPSSLSASVGDRVTITCSASSSVTYMYWYQRKPGKAPKLLIYDTSNLASGVPSRFSGSGSGTDYTFTISSLQPEDIATYYCQQWSSHIFTFGQGTKVEIKGQPKAAPSVTLFPPSSEELQANKATLVCLISDFYPGAVTVAWKADSSPVKAGVETTTPSKQSNNKYAASSYLSLTPEQWKSHRSYSCQVTHEGSTVEKTVAPTEC
notes: also called HE Designs
In the case of B2, the binding result with hEGFR-Fc and in the assay with hHER-2-Fc [2] was “binds” in each case.

B3: HEDesign κλ (anti-HER-2/anti-EGFR IgG BsAb with Fab redesigns) (bispecific antibody)
heavy 1: B2 heavy 1
light 1: RIQMTQSPSSLSASVGDRVTITCKASQDVSIGVAWYQDKPGKAPKLLIYSASYRYTGVPSRFSGSGSGTDFTLTISSLQPEDFATYYCQQYYIYPYTFGQGTKVEIKRTVAAPSVFIFPPSDEQLKSGTASVVCYLNNFYPREAKVQWKVDNALQSGNSQESVTEQDSKDSTYSLWSTLTLSKADYEKHKVYACEVTHQGLSSPVTKSFNRGEC
heavy 2: B2 heavy 2
light 2: B2 light 2
notes: also called HE Designs
Turning to B3, the binding result in the assay with hEGFR-Fc and in the assay with hHER-2-Fc [2] was “binds” each time.

B4: HEDesign λκ (anti-HER-2/anti-EGFR IgG BsAb with Fab redesigns) (bispecific antibody)
heavy 1: B2 heavy 1
light 1: B2 light 1
heavy 2: B2 heavy 2
light 2: DIQMTQSPSSLSASVGDRVTITCSASSSVTYMYWYQRKPGKAPKLLIYDTSNLASGVPSRFSGSGSGTDYTFTISSLQPEDIATYYCQQWSSHIFTFGQGTKVEIKRTVAAPSVFIFPPSDEQLKSGTASVVCLLNNFYPREAKVQWKVDNALQSGNSQESVTEQDSKDSTYSLSSTLTLSKADYEKHKVYACEVTHQGLSSPVTKSFNRGEC
notes: also called HE Designs
In the case of B4, the binding result with hEGFR-Fc and with hHER-2-Fc [2] was “binds” each time.

B5: Anti-Axl IgG1 (AxlG1) (antibody, V domains shown)
VH: EVQLVESGGGLVQPGGSLRLSCAASGFSLSGSWIHWVRQAPGKGLEWVGWINPYRGYAYYADSVKGRFTISADTSKNTAYLQMNSLRAEDTAVYYCAREYSGWGGSSVGYAMDYWGQGTLVTVSS
VL: DIQMTQSPSSLSASVGDRVTITCRASQDVSTAVAWYQQKPGKAPKLLIYSASFLYSGVPSRFSGSGSGTDFTLTISSLQPEDFATYYCQQSYTTPPTFGQGTKVEIKG
notes: also called anti-Axl antibody YW327.6S2 control IgG
Take B5: the binding result with hHGFR(cMet)-Fc is reported as “no binding (tested: 5 µg/mL, serially diluted 1:3)”.
